Molecular target: human PD-L1 (human) (UniProt Q9NZQ7)
Assay: FACS blocking of human PD-1/PD-L1 binding

Sequence of human PD-L1 (human) (Q9NZQ7 19-290): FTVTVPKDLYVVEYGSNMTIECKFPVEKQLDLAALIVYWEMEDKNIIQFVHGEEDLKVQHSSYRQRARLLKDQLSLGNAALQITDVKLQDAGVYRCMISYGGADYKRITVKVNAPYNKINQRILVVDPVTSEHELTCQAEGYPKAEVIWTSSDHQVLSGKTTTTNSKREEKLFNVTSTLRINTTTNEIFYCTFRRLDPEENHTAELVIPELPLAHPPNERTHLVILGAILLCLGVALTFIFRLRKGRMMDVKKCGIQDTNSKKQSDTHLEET

IC50: 0.208 µg/mL
Substance: KN035
